The supplement of paper PMC10567573

B1: RHOBTB1 (parent)
chain: TFGDHHKDRRFAYGRSDVVVLCFS
B2: ANKRD17 (parent)
chain: EVLRRLTSSVSCALDEAAAALTRM

Variants of: B1
Assay: protein stability index of a GFP-peptide fusion (GPS, HEK-293T) (PSI 1-6); higher = more stable
Conditions: c terminus: a fixed tail appended
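Further: lentivirally expressed fusions sorted by FACS into six bins by GFP to DsRed ratio, PSI derived from sequencing read proportions per bin multiplied by bin number.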

Protein stability index of substitutions, site by site:
C22: S 1.94, P 2.21, T 1.3, N 2.23, Y 1.07, K 2.17, Q 2.2, W 2.73, V 3.33, L 2.42, E 2.2, D 2.32, F 3.21, M 2.88, A 1.72, G 2.21
L21: A 1.62, G 2.23, C 1.85, P 2.56, S 2.15, M 2.78, I 1.49, E 2.79, W 2.3, K 2.34, F 2.07, R 1.96, T 2.14, V 2.86, Q 2.4, D 2.68, N 2.44, H 1.9
V20: R 1.97, K 1.73, L 2.42, M 1.44, N 2.56, H 1.62, Q 1.7, T 1.68, S 1.95, P 2.61, Y 1.75, F 2.54, G 2.05
F23: E 3.12, R 2.38, C 2.41, I 1.41, D 3.1, T 1.68, H 2.6, S 1.66, G 2.47, L 1.42, N 3.08, M 2.59, P 2.16, W 1.81, K 2.25, Y 2.22
S24: Y 4.57, T 2.16, R 2.95, C 3.85, V 2.3, H 2.98, E 2.05, N 1.65, D 1.66, F 2.84, G 2.54, P 1.48

Variants of: B2
Assay: as above
Conditions: c terminus: a fixed tail appended

Protein stability index of substitutions, site by site:
L3: S 2.98, T 1.55, M 1.41, R 2.17, W 1.4, I 1.23, P 3.4, Y 2.44, D 3.35, G 3.68, A 1.83
E1: M 1.38, P 2.48, V 2.42, G 2.73, R 3.12, L 1.8, Y 2.22, C 1.94, A 2.07, F 1.73, T 2.08, D 1.97, K 2.28, H 2.67, Q 3.07, S 2.2, I 1.89
R4: C 1.74, E 1.42, P 2.15, W 1.07, T 2.1, S 1.05, I 1.04, G 2.19, Y 2.34, F 1.03, Q 1.57
V2: E 2.21, P 2.43, C 2.34, T 2.79, S 2.59, D 2.77, Y 2.08, A 2.96, K 2.33, L 2.35, R 2.6, M 2.56, H 3.64, I 2.4, Q 2.56, W 1.69
L6: M 1.76, I 1.67, H 1.66, T 2.32, P 2.38, W 2, C 2.38, E 3.9, S 1.73, F 1.9, A 2.11, Y 2.28, Q 2.95, K 2.17, N 2.07, G 1.42
R5: G 2.1, W 1.02, N 2.35, P 2.02, T 1, D 3.56, F 1.68, L 1.59, M 2.05, H 2.23, K 4.55, S 2.18
T7: D 1.81, I 2.06, K 3.26, F 1.66, C 2.05, E 2.81, H 1.17, G 2.27, A 2.96
